Ends that are not written are not given here.
Experiments:
[1] = molecular target: T1, corticotropin releasing factor 2 receptor; assay: cell-based or functional assay
T1 sequence (Q13324 whole entry, species assumed, looked up): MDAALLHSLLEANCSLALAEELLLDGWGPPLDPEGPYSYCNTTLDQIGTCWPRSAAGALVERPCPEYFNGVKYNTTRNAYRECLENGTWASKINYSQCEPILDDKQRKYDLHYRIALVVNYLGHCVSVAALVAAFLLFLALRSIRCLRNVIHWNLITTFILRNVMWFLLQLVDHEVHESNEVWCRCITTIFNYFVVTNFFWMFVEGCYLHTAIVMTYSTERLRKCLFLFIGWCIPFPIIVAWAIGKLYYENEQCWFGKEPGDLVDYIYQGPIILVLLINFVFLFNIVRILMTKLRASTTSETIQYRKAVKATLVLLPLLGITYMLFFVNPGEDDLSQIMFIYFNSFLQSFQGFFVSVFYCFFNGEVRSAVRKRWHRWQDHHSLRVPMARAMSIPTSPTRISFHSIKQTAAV

[2] = molecular target: corticotropin releasing factor 1 receptor; assay: cell-based or functional assay
Wherever CRF1R Emax is given: reference of the scale not given here.
Wherever CRF2R Emax is given: reference of the scale not given here.

| Binder | CRF2R EC50 [1] | CRF2R Emax [1] | CRF1R EC50 [2] | CRF1R Emax [2] |
| --- | --- | --- | --- | --- |
| IVLSLDVPIGLLQTLLELARTQSQRERAEQNRIIFDSV-NH2 [SEQ ID NO 160] | 9.15 nM | 87% | > 100 nM | 10% |
| SQEPPISLDLTFHLLREVLEQARARAAREQATTNARILARV-NH2 [SEQ ID NO 157] | 42 nM | 60.6% | 100 nM | 91% |
| IVLSLDVPIGLLQILLEMTKADQLAQQAHSNRKLLDIA-NH2 [SEQ ID NO 155] | 20.6 nM | 94% | 40.6 nM | 16% |
| IVLSLDVPIGLLQILLEQTKADQLAQQAHSNRKLLDIA-NH2 [SEQ ID NO 159] | 90.8 nM | 62% | > 100 nM | 9% |
| IVLSLDVPIGLLQILLEIEKQEKEKQQAANNRLLLDTI-NH2 [SEQ ID NO 158] | 6.37 nM | 89% | > 100 nM | 15% |
| ZGPPISIDLSLELLRKMIEQARARAAREQATTNARILARV (C-terminal amide) [SEQ ID NO 156] | 9.29 nM | 79% | > 100 nM | 6% |
| IVLSLDVPIGLLQILLEQAAREQATTNARILARV-NH2 [SEQ ID NO 138] | 59 nM | 46% | > 100 nM | 5% |
| ZGPPISIDLSLELLRKMIEIEKQEKEKQQATTNARILARV (C-terminal amide) [SEQ ID NO 142] | 9.08 nM | 77% | 43.5 nM | 85.3% |
| ZGPPISIDLPLHLLRKMIEIEKQEKEKQQATTNARILARV (C-terminal amide) [SEQ ID NO 145] | 7.8 nM | 69% | 196 nM | 91.3% |
| ZGPPISIDLPLELLRKMIEIEKQEKEKQQATTNARILARV (C-terminal amide) [SEQ ID NO 143] | 11.1 nM | 85.5% | 232 nM | 100% |
| ZGPPISIDLPFYLLRKMIEIEKQEKEKQQATTNARILARV (C-terminal amide) [SEQ ID NO 147] | 6.75 nM | 94% | 102 nM | 96% |
| ZGPPISIDLPFHLLRKMIEIEKQEKEKQQATTNARILARV (C-terminal amide) [SEQ ID NO 146] | 8.2 nM | 84.5% | 103 nM | 100% |
| ZGPPISIDLPFQLLRKMIEIEKQEKEKQQATTNARILARV (C-terminal amide) [SEQ ID NO 148] | 9.45 nM | 51.5% | 295 nM | 100% |
| ZGPPISIDLPIQLLRKMIEIEKQEKEKQQATTNARILARV (C-terminal amide) [SEQ ID NO 150] | 34.6 nM | 70.5% | 1000 nM | 5.7% |
| ZGPPISIDLPTYLLRKMIEIEKQEKEKQQATTNARILARV (C-terminal amide) [SEQ ID NO 151] | 36.8 nM | 96% | 1000 nM | 19.9% |
| ZGPPISIDLPIYLLRKMIEIEKQEKEKQQATTNARILARV (C-terminal amide) [SEQ ID NO 149] | 26.2 nM | 95.5% | 1000 nM | 40.7% |
| ZGPPISIDLPLQLLRKMIEIEKQEKEKQQATTNARILARV (C-terminal amide) [SEQ ID NO 144] | 9.16 nM | 85.5% | 567 nM | 100% |
| IVLSLDVPIGLLQILLEQRARAAREQATTNARILARV-NH2 [SEQ ID NO 137] | 36.9 nM | 100% | > 100 nM | 4% |
| IVLSLDVPIGLLQILIEIEKQEKEKQQAANNRLLLDTI-NH2 [SEQ ID NO 154] | 10.3 nM | 100% | > 100 nM | 7% |
| SQEIVLSLDVPIGLLREVLEMTKADQLAQQAHSNRKLLDIA-NH2 [SEQ ID NO 152] | > 100 nM | 19% | > 100 nM | 4% |
| ZGIVLSLDVPIGLLRKMIEIEKQEKEKQQAANNRLLLDTI (C-terminal amide) [SEQ ID NO 153] | 9.28 nM | 97% | > 100 nM | 7% |
| IVLSLDVPIGLLQILLEQAARAAREQATTNARILARV-NH2 [SEQ ID NO 135] | > 100 nM | 76% | > 100 nM | 6% |
| IVLSLDVPIGLLQILLEQRAAREQATTNARILARV-NH2 [SEQ ID NO 136] | 23.4 nM | 68% | > 100 nM | 8% |
| IVLSLDVPIGLLQILLEQARAAAREQATTNARILARV-NH2 [SEQ ID NO 141] | > 100 nM | 29% | > 100 nM | 7% |
| IVLSLDVPIGLLQILLEQAAAREQATTNARILARV-NH2 [SEQ ID NO 139] | 42.6 nM | 60% | > 100 nM | 4% |
| SEEPPISLDLTFHLLREVLEMARAEQLAQQAHTNARILARV-NH2 [SEQ ID NO 161] | > 100 nM | 88% | > 100 nM | 77% |
| ZGPPISIDLPFQLLRKMIEIEKQEKEKQQATNNRLLLDTI (C-terminal amide) [SEQ ID NO 14] | 6.33 nM | 90% | 109 nM | 92% |
| ZGPPISIDLPFQLLRKMIEIEKQEKEKQQAAANRLLLDTV (C-terminal amide) [SEQ ID NO 15] | 6.56 nM | 97% | 85.3 nM | 86% |
| ZGPPISIDLPFQLLRKMIEIEKQEKEKQQATTNRLLLDTV (C-terminal amide) [SEQ ID NO 16] | 7.88 nM | 86% | 136 nM | 98% |
